The assay deals with FLAG-tagged recombinant human butyrylcholinesterase (^FLAGBChE) (human) (UniProt P06276). Kind of assay: non-reducing SDS-PAGE with immuno.

Several values for one entry are separate records, joined by “and”; a condition that tells them apart may be missing. Equal entries are not always repeated.

As for “FLAG-tagged recombinant human butyrylcholinesterase (^FLAGBChE) (from UniProt P06276 29-602) (enzyme)”, the stoichiometry N was 2 and 4.

Usually stoichiometry N stands for the number of molecules, sites or subunits per partner or assembly.

The record behind these values is paper PMC4265266.
